# Measurements: patent US7915395B2
# Target: human CD3-ε (human) (UniProt P07766)
# Sequence of UniProt P07766 (P07766 23-207): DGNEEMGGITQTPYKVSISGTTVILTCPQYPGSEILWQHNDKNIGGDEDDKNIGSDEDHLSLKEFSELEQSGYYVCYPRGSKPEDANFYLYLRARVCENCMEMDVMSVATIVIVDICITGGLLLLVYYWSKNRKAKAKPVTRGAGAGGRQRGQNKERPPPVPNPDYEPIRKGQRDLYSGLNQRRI
Molecule,"Proliferation (day 3, cpm × 10^-3), Purified T Cells + (2 µg/ml 9.3) [cpm × 10^-3]","Proliferation (day 3, cpm × 10^-3), Purified T Cells + (0.5 ng/ml PMA) [cpm × 10^-3]"
G19-4 Fab,58.4,–
native anti-CD3 Mab G19-4 (antibody),–,83.6
"CD3 sFv (VL-VH, no tag) (scFv) scFv: VDIQMTQTTSSLSASLGDRVTISCRASQDIRNYLNWYQQKPDGTVKLLIYYTSRLHSGVPSRFSGSGSGTDYSLTIANLQPEDIATYFCQQGNTLPWTFGGGTKLVTKRELGGGGSGGGGSGGGGSIDEVQLQQSGPELVKPGASMTMSCKASGYSFTGYIVNWLKQSHGKNLEWIGLINPWKGLTTYNQKFKGKATLTVDKSSSTAYMELLSLTSEDSAVYYCARSGYYGDSDWYFDVWGAGTTCTVSSFESDQSNSEEAKKEEAKKEEAKKSNSLESL",–,65
